Assay results as given in the supplement of paper PMC11246515.
± gives the standard deviation of the averaged measurements.

Test: total protein half-life in vivo (active degradation + dilution); higher = more stable protein
[1] = E. coli NCM3722 delta-clpP delta-lon delta-hslV, growth: N-lim chemostat, doubling time 6 h
[2] = E. coli NCM3722 delta-clpP, growth: N-lim chemostat, doubling time 6 h
[3] = E. coli NCM3722 delta-hslV, growth: N-lim chemostat, doubling time 6 h
[4] = E. coli NCM3722 delta-lon, growth: N-lim chemostat, doubling time 6 h
[5] = E. coli NCM3722 delta-smpB, growth: N-lim chemostat, doubling time 6 h
[6] = wild type E. coli NCM3722, growth: C-lim chemostat, doubling time 3 h
[7] = wild type E. coli NCM3722, growth: C-lim chemostat, doubling time 6 h
[8] = wild type E. coli NCM3722, growth: C-lim chemostat, doubling time 12 h
[9] = wild type E. coli NCM3722, growth: N-lim chemostat, doubling time 6 h
[10] = wild type E. coli NCM3722, growth: N-lim chemostat, doubling time 12 h
[11] = wild type E. coli NCM3722, growth: P-lim chemostat, doubling time 12 h
[12] = wild type E. coli NCM3722, growth: P-lim chemostat, doubling time 6 h

| Sequence | total protein half-life in vivo [1] [h] | total protein half-life in vivo [2] [h] | total protein half-life in vivo [3] [h] | total protein half-life in vivo [4] [h] | total protein half-life in vivo [5] [h] | total protein half-life in vivo [6] [h] | total protein half-life in vivo [7] [h] | total protein half-life in vivo [8] [h] | total protein half-life in vivo [9] [h] | total protein half-life in vivo [10] [h] | total protein half-life in vivo [11] [h] | total protein half-life in vivo [12] [h] |
| --- | --- | --- | --- | --- | --- | --- | --- | --- | --- | --- | --- | --- |
| MNNDVFPNKFKAALAAKQVQIGCWSALSNPISTEVLGLAGFDWLVLDGEHAPNDISTFIPQLMALKGSASAPVVRVPTNEPVIIKRLLDIGFYNFLIPFVETKEEAELAVASTRYPPEGIRGVSVSHRANMFGTVADYFAQSNKNITILVQIESQQGVDNVDAIAATEGVDGIFVGPSDLAAALGHLGNASHPDVQKAIQHIFNRASAHGKPSGILAPVEADARRYLEWGATFVAVGSDLGVFRSATQKLADTFKK | 4.58 ± 0.62 | 4.02 ± 1.4 | 2.99 ± 0.14 | 3.19 | 3.51 ± 0.42 | 3.2103 ± 7.8e-05 | 5.123 ± 0.023 | 9.79 ± 0.92 | 3.355 ± 0.022 | 7.58 | 11.6 ± 0.72 | – |
| MNNIQIRNYQPGDFQQLCAIFIRAVTMTASQHYSPQQISAWAQIDESRWKEKLAKSQVWVAIINAQPVGFISRIEHYIDMLFVDPEYTRRGVASALLKPLIKSESELTVDASITAKPFFERYGFQTVKQQRVECRGAWFTNFYMRYKPQH | 4.81 | 3.71 ± 0.28 | 3.82 | – | 2.9 | – | > 8 | – | > 8 | – | 9.48 ± 0.24 | – |
| MNNIQLAHGSGGQAMQQLINSLFMEAFANPWLAEQEDQARLDLAQLVAEGDRLAFSTDSYVIDPLFFPGGNIGKLAICGTANDVAVSGAIPRYLSCGFILEEGLPMETLKAVVTSMAETARAAGIAIVTGDTKVVQRGAVDKLFINTAGMGAIPANIHWGAQTLTAGDVLLVSGTLGDHGATILNLREQLGLDGELVSDCAVLTPLIQTLRDIPGVKALRDATRGGVNAVVHEFAAACGCGIELSEAALPVKPAVRGVCELLGLDALNFANEGKLVIAVERNAAEQVLAALHSHPLGKDAALIGEVVERKGVRLAGLYGVKRTLDLPHAEPLPRIC | 3.91 ± 0.43 | 3.16 ± 0.4 | 3.27 ± 0.042 | 3.76 ± 0.14 | 3.59 ± 0.38 | 2.96 ± 0.3 | – | 9.14 ± 0.81 | 3.28 ± 0.28 | 4.8 ± 0.18 | 9.482 ± 0.012 | 4.98 ± 0.13 |
| MNNPAMTIKGEQAKKQLIAAALAQFGEYGMNATTREIAAQAGQNIAAITYYFGSKEDLYLACAQWIADFIGEQFRPHAEEAERLFAQPQPDRAAIRELILRACRNMIKLLTQDDTVNLSKFISREQLSPTAAYHLVHEQVISPLHSHLTRLIAAWTGCDANDTRMILHTHALIGEILAFRLGKETILLRTGWTAFDEEKTELINQTVTCHIDLILQGLSQRSL [P0ACU0] | 5.84 ± 0.3 | 5.34 ± 0.68 | 4.74 ± 0.24 | – | 4.47 ± 0.15 | 2.49 ± 0.42 | 5.25 ± 0.066 | – | 4.76 ± 0.33 | 7.67 ± 0.31 | 10.4 ± 0.78 | 4.47 ± 0.36 |
